{
  "source": "patent US20190382503A1",
  "about": "(published 2019)",
  "key": {"[1]": {"biological_target": "T1, CD137 / 4-1BB (soluble antigen, form not stated) (UniProt Q07011 24-186, limits assumed)", "T1 construct": "also called biotinylated 4-1BB antigen; CD137 in ELISA", "experiment": "ELISA"}, "[2]": {"biological_target": "T2, human CD137 on cells (human, UniProt Q07011 24-255)", "T2 construct": "Human CD137 on CHO-K1 transfectants, Jurkat/CD137 reporter cells or CD3-stimulated primary human CD8 T cells; cells named under assay; also called 4-1BB; TNFRSF9", "T2 sequence (Q07011 24-255 limits assumed)": "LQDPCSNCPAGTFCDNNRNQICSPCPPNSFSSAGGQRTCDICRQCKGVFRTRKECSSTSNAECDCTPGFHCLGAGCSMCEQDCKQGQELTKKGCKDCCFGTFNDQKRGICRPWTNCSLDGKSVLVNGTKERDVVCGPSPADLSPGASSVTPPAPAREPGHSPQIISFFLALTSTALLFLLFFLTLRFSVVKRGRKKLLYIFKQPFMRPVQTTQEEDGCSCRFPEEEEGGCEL", "experiment": "flow cytometry, MFI of the CD137 positive CD8 T cells", "experimental": "(§1) FACS staining and analysis of CD8 T cells: Following 48 h of incubation with or without CD3, human and cynomolgus PBMC were harvested, pooled, recounted and diluted in FACS buffer (PBS+0.5% BSA, 0.05% NaN₃) to a concentration of 5×10⁶ cells/mL. 50 μL (0.25×10⁶ cells) of cell solution was added to a 96-well FACS staining plate (Falcon #351190). Following 10 min of Fc-blocking in RT using Beriglobin (hIgG, 200 μg/mL), cells were washed in FACS buffer and then incubated for 1 h in 4° C. with 100 μL of the biotinylated ALG.APV-210 or negative control. […] Cells were analysed for ALG.APV-210 binding using flow cytometry by gating on viable, single cells expressing CD3 and CD8. MFI values (FMO subtracted) from 2 independent experiments as well as normalized pooled data from 2 experiments and EC₅₀-values were determined and plotted using GraphPad Prism 7, non-linear regression log (agonist) vs. normalized response-variable slope, n=6 donors/group.\n(§2) ALG.APV-210 binding was also assessed by looking at the percentage of CD8 T cells bound by ALG.APV-210. […] The binding EC₅₀ values were also calculated on the MFI of the CD137 positive cells, and the results was an EC₅₀ of 0.17 nM for binding to human CD137 and 0.20 nM for cynomolgus monkey CD137."}, "[3]": {"biological_target": "T3, cynomolgus CD137 on cells (cynomolgus macaque, UniProt A9YYE7 24-254)", "T3 construct": "whole, on cells; also called CHO-K1/cynomolgus CD137; cynomolgus monkey CD137", "T3 sequence (A9YYE7 entry or part of it)": "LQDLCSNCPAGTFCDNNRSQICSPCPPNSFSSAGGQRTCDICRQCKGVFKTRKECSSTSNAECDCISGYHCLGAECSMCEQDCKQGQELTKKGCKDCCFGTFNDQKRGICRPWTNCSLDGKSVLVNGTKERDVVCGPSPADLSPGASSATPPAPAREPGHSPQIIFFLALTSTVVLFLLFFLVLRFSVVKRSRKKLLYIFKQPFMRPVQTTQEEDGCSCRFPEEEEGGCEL", "experiment": "flow cytometry, MFI of the CD137 positive CD8 T cells", "experimental": "as §1, §2"}, "[4]": {"biological_target": "T4, human 5T4 on cells (human, UniProt Q13641 32-420)", "T4 construct": "Human 5T4 on transfected cells (CHO-K1, CT26, B16) or endogenous on human tumour lines; the cell line is named under assay; also called trophoblast glycoprotein; TPBG", "T4 sequence": "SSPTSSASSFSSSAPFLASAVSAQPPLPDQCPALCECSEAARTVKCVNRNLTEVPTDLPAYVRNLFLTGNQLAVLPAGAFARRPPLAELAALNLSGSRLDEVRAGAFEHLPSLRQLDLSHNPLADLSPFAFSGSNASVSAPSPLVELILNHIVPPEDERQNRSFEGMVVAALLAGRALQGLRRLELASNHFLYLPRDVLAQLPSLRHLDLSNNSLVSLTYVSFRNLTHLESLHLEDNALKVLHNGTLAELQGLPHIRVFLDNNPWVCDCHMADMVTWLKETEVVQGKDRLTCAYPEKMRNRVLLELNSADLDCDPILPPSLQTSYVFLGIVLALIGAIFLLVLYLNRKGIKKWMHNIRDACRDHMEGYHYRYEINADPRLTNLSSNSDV", "experiment": "flow cytometry, HT-29 cells, streptavidin-PE, normalized MFI of 2 pooled experiments", "experimental": "(§3) FACS staining and analysis of 5T4-expressing cell lines: Prior to the FACS staining, all cell lines were characterized for their 5T4 expression levels using a receptor density kit (Quantum Simply Cellular, anti-human IgG, Bangs Laboratories, Inc). Adherent cell lines were cultured according to their supplier's instructions and were harvested from their cell culture flasks using Trypsin/EDTA, counted in R10 medium in a Burker chamber, and diluted in FACS buffer (PBS+0.5% BSA, 0.05% NaN₃) to a concentration of 4×10⁶ cells/mL. 50 μL (0.20×10⁶) of cell solution was added to a 96-well FACS staining plate (Falcon #351190). Cells were incubated for 20 min in 4° C. with 50 μL of the biotinylated ALG.APV-210 (2× final concentration). The antibodies were added in a serial dilution starting at 20 μg/mL titrating down in a 12 step 1/2 dilution down to 0.010 μg/mL. […] Cells were analysed for ALG.APV-210 binding using flow cytometry (FACSVerse) by gating on single cells. MFI values (secondary antibody only subtracted) from 1 out of 2 independent experiments, as well as normalized data and EC₅₀-values of pooled data from 2 experiments were determined and plotted using GraphPad Prism 7, non-linear regression log (agonist) vs. normalized response-variable slope."}, "[5]": {"biological_target": "T4, human 5T4 on cells", "experiment": "flow cytometry, HCT-116 cells, streptavidin-PE, normalized MFI of 2 pooled experiments", "experimental": "as §3"}, "[6]": {"biological_target": "T4, human 5T4 on cells", "experiment": "flow cytometry, CT26-hu5T4^low cells, streptavidin-PE, normalized MFI of 2 pooled experiments", "experimental": "as §3"}},
  "data": [
    {"binder": "biotinylated ALG.APV-210 (bispecific antibody, biotinylated (sites not given)) EVQLLESGGGLVQPGGSLRLSCAASGFTFSHGSMYWVRQAPGKGLEWVSSISSGSGSTYYADSVKGRFTISHDNSKNTLYLQMNSLRAEDTAVYYCARSSYYGSYYSIDYWGQGTLVTVSSGGGGSGGGGSGGGGSGGGGSDIQMTQSPSSLSASVGDRVTITCRASQSISSYLNWYQQKPGKAPKLLIYAASSLQSGVPSRFSGSGSGTDFTLTISSLQPEDFATYYCQQYYDNLPTFGQGTKLEIKEPKSSDKTHTCPPCPAPEAAGAPSVFLFPPKPKDTLMISRTPEVTCVVVDVSHEDPEVKFNWYVDGVEVHNAKTKPREEQYNSTYRVVSVLTVLHQDWLNGKEYKCAVSNKALPAPIEKTISKAKGQPREPQVYTLPPSRDELTKNQVSLTCLVKGFYPSDIAVEWESNGQPENNYKTTPPVLDSDGSFFLYSKLTVDKSRWQQGNVFSCSVMHEALHNHYTQKSLSLSPGSGGGGSGGGGSGGGGSPSEVQLLESGGGLVQPGGSLRLSCAASGFTFSSYAMSWVRQAPGKCLEWVSAISGSGGSTYYADSVKGRFTISRDNSKNTLYLQMNSLRAEDTAVYYCARYYGGYYSAWMDYWGQGTLVTVSSGGGGSGGGGSGGGGSGGGGSDIQMTQSPSSLSASVGDRVTITCRASQSISSFLNWYQQKPGKAPKLLIYAASSLQSGVPSRFSGSGSGTDFTLTISSLQPEDSATYYCQQTYGYLHTFGCGTKLEIKR", "values": [
      {"measurement": "EC50", "setting": "[1]", "result": 0.6, "unit": "nM"},
      {"measurement": "EC50", "setting": "[2]", "result": 0.17, "unit": "nM"},
      {"measurement": "EC50", "setting": "[3]", "result": 0.2, "unit": "nM"},
      {"measurement": "EC50", "setting": "[4]", "result": 12, "unit": "nM"},
      {"measurement": "EC50", "setting": "[5]", "result": 16, "unit": "nM"},
      {"measurement": "EC50", "setting": "[6]", "result": 11, "unit": "nM"}
    ]}
  ]
}
